Experimental data published in PMC9321951, “Thiol redox switches regulate the oligomeric state of cyanobacterial Rre1, RpaA and RpaB response regulators” (Febs Letters, 2022).
“And” between values parts separate entries of the source, which are not always exact repeats. Equal entries are not always repeated. Values belong to the molecule of their own block, whether it stands above or below them.

Key:
[1] = target: Regulator of Photosynthesis and Photopigment-related gene expression A (RppA), full-length, MBP-tagged (Synechocystis sp. PCC 6803) (UniProt Q55933); assay: SEC; RppA oxidised with 2 mM diamide, desalted; 0.85 mg on Superdex S200 10/300GL Increase; 100 mM HEPES pH 8.0, 100 mM NaCl; approximate masses from a calibration curve
[2] = target: Regulator of Photosynthesis and Photopigment-related gene expression A (RppA), full-length, MBP-tagged (Synechocystis sp. PCC 6803) (UniProt Q55933); assay: non-reducing urea-SDS/PAGE; 2.5 µM RppA with 2 mM diamide, 30 min, room temperature; non-reducing SDS-6 M urea-8% PAGE
[3] = target: Regulator of Phycobilisome Association B (RpaB), full-length, MBP-tagged (Synechocystis sp. PCC 6803); assay: SEC; RpaB oxidised with 2 mM H2O2, desalted; 0.85 mg on Superdex S200 10/300GL Increase; 5% glycerol, 300 mM NaCl, 100 mM HEPES pH 8.0; approximate masses from a calibration curve
[4] = target: Regulator of Phycobilisome Association B (RpaB), full-length, MBP-tagged (Synechocystis sp. PCC 6803); assay: non-reducing urea-SDS/PAGE; 2.5 µM Rre1, RpaA or RpaB, air-exposed untreated or with 2 mM diamide or 2 mM H2O2, 30 min, room temperature; non-reducing SDS-6 M urea-8% PAGE; shows disulfide-linked oligomers
[5] = target: the molecule itself; assay: SEC; Rre1 or RpaA oxidised with 2 mM H2O2, desalted; 0.85 mg on Superdex S200 10/300GL Increase; 100 mM HEPES pH 8.0, 100 mM NaCl; approximate masses from a calibration curve

stoichiometry N [1]: 3
stoichiometry N [2]: 3
Molecule: Regulator of Photosynthesis and Photopigment-related gene expression A (RppA), full-length, MBP-tagged (from UniProt Q55933 1-234) (natural protein)

stoichiometry N [3]: 4 and 3
stoichiometry N [4]: 2
Molecule: Regulator of Phycobilisome Association B (RpaB), full-length, MBP-tagged (natural protein)

B1: Response Regulator 1 (Rre1), full-length, MBP-tagged (natural protein, Synechocystis sp. PCC 6803, UniProt P72781 1-231, looked up)
chain: MAEPISLLLVDDEPGVRESVQAFLEDSGDFKVDLAANATEAWDYLQHHLPALVISDIMMPQVDGYQFLQKLREDARFQSLPVVFLTARGMTGDRIQGYQTGCDAFLSKPFDPDELEAIVRNLLARQQASSDAGSESAKLQEIYQEIRALKEQIGQPSGIHTTPSPIKLDFTPREQSVLDLVSQGLMNKEIAAQLKTSVRNVEKYVSRLFTKTGTNSRTELVRFALQHGLTE
notes: Rre1 (response regulator 1), Synechocystis sp; Cloned KpnI/XhoI into pETG-41A; theoretical mass of the MBP-tagged monomer printed as 75 kDa
stoichiometry N [5]: 3 and 4
